Fewer inactive variants are shown than the library holds.
B1: TPR 5TU (parent)
chain: GGAUCUUCUCGAUCUAACAAAAAAGACAAAUCUGCCACAAAGCUUGAGAGCAUCUUCGGAUGCAGAGGCGGCAGCCUUCGGUGGCGCGAUAGCGCCAACGUUCUCAACUAUGACACGCAAAACGCGUGCUCCGUUGAAUGGAGUUUAUCAUG

Variants of: B1
Experiment: polymerase ribozyme fitness, log enrichment relative to wild type (log ratio); higher = more active; in vitro selection for triplet polymerase activity
In short: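 Fitness is a logarithmic measure of how a genotype enriched relative to the wild type, with replicate averages weighted by inverse variance. The logarithm uses base 2, and enrichment came from Illumina sequencing of input and output libraries. Those libraries were PCR-built, transcribed mutants of each subunit of a heterodimeric triplet polymerase ribozyme, passed through one triplicate in vitro selection round that included frozen incubation at −7 °C, gel excision of extended constructs and streptavidin-bead capture. Genotypes were kept only if they had ≥10 input reads and ≥1 read per output.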

Question: With C10A A23C G50A C75G C95U C96A C123G as the variant, how does the “polymerase ribozyme fitness (log ratio)” value read?
Answer: ≤ -4.2

Question: With C10G G92C as the variant, how does the “polymerase ribozyme fitness (log ratio)” value read?
Answer: -3.61

Question: With C10G G92U as the variant, how does the “polymerase ribozyme fitness (log ratio)” value read?
Answer: -3.24

Question: For C10G U44G A49C A52C A64C G74C U104G A122G G141A, which “polymerase ribozyme fitness (log ratio)” value is on record?
Answer: ≤ -4.2

Question: With C10G U13C G70A U111G U148A as the variant, how does the “polymerase ribozyme fitness (log ratio)” value read?
Answer: ≤ -4.2

Question: For C10A C85G G141U, which “polymerase ribozyme fitness (log ratio)” value is on record?
Answer: ≤ -4.2

Question: For U9G G86A A138G, which “polymerase ribozyme fitness (log ratio)” value is on record?
Answer: ≤ -4.2

Question: For C10G U78G C85G U109C G140U, which “polymerase ribozyme fitness (log ratio)” value is on record?
Answer: ≤ -4.2

Question: For C10G C36U G70C C79A C95G A115U, which “polymerase ribozyme fitness (log ratio)” value is on record?
Answer: ≤ -4.2

Question: Which “polymerase ribozyme fitness (log ratio)” value does the source give for U9G A73U C87U U102A C105G C108A here?
Answer: ≤ -4.2

Question: Which “polymerase ribozyme fitness (log ratio)” value does the source give for C10A G67C C93G C99G A137U U146A here?
Answer: ≤ -4.2

Question: Which “polymerase ribozyme fitness (log ratio)” value does the source give for U9G A16U G80A G83C here?
Answer: -4.08

Question: With U9C C10U A16U A19C C85G G94C C105U A106U as the variant, how does the “polymerase ribozyme fitness (log ratio)” value read?
Answer: ≤ -4.2

Question: With C10A C51U C93U U111G as the variant, how does the “polymerase ribozyme fitness (log ratio)” value read?
Answer: ≤ -4.2

Question: For C10G A26U A28C C87A G88U A91C U145C, which “polymerase ribozyme fitness (log ratio)” value is on record?
Answer: ≤ -4.2

Question: For C10U C51G A52U C87A C123U G141C, which “polymerase ribozyme fitness (log ratio)” value is on record?
Answer: ≤ -4.2

Question: With C10A C76G G81A G86U A137U as the variant, how does the “polymerase ribozyme fitness (log ratio)” value read?
Answer: ≤ -4.2

Question: For C10U A22U A29G U53G C75A G83A A106U A150C, which “polymerase ribozyme fitness (log ratio)” value is on record?
Answer: ≤ -4.2

Question: Which “polymerase ribozyme fitness (log ratio)” value does the source give for C10A C32G U44G C57U U82G G83A here?
Answer: ≤ -4.2

Question: Which “polymerase ribozyme fitness (log ratio)” value does the source give for C10U A52C C87U G88A A122U C123G here?
Answer: ≤ -4.2

Question: With U9C A28U A30C U61A G88A A91U G92A A119U as the variant, how does the “polymerase ribozyme fitness (log ratio)” value read?
Answer: ≤ -4.2

Question: For U9C C10G C36G U55A G84A G126A, which “polymerase ribozyme fitness (log ratio)” value is on record?
Answer: ≤ -4.2

Question: For C10G U13A A23U C32A A41G G71C C87U C105U A115U, which “polymerase ribozyme fitness (log ratio)” value is on record?
Answer: ≤ -4.2

Question: Which “polymerase ribozyme fitness (log ratio)” value does the source give for C10U C27U C35G C87G C96U U148G here?
Answer: ≤ -4.2

Question: Which “polymerase ribozyme fitness (log ratio)” value does the source give for C10A A106G G126U here?
Answer: ≤ -4.2

Question: With C10G G11U C32A C51U C75U C93U C95A as the variant, how does the “polymerase ribozyme fitness (log ratio)” value read?
Answer: -4.16

Question: Which “polymerase ribozyme fitness (log ratio)” value does the source give for U9C A37G G42C A73U G92C C103U here?
Answer: ≤ -4.2

Question: For C10U A16C A23U G62C A64G G83C U102G C114U U127G, which “polymerase ribozyme fitness (log ratio)” value is on record?
Answer: ≤ -4.2

Question: With U9G C96U as the variant, how does the “polymerase ribozyme fitness (log ratio)” value read?
Answer: -3.76

Question: With U9G C87G C93U C125A as the variant, how does the “polymerase ribozyme fitness (log ratio)” value read?
Answer: ≤ -4.2

Question: For U9C A26G U55A A122U, which “polymerase ribozyme fitness (log ratio)” value is on record?
Answer: ≤ -4.2

Question: For C10A G48C U82G A97U, which “polymerase ribozyme fitness (log ratio)” value is on record?
Answer: ≤ -4.2

Question: With C10A A21U G84A A97U A113G as the variant, how does the “polymerase ribozyme fitness (log ratio)” value read?
Answer: ≤ -4.2

Question: Which “polymerase ribozyme fitness (log ratio)” value does the source give for U9C U56A C76A C108G G143U A150G here?
Answer: ≤ -4.2

Question: For C10U A47G G94U A147G, which “polymerase ribozyme fitness (log ratio)” value is on record?
Answer: ≤ -4.2

Question: Which “polymerase ribozyme fitness (log ratio)” value does the source give for U9G A29G A47C U53A U55G G124C G133C G143A here?
Answer: ≤ -4.2

Question: With C10A U13C A30C G83A G88A A98U C125A A147G as the variant, how does the “polymerase ribozyme fitness (log ratio)” value read?
Answer: ≤ -4.2

Question: Which “polymerase ribozyme fitness (log ratio)” value does the source give for C10U C75U G84A U145A here?
Answer: -4.08

Question: Which “polymerase ribozyme fitness (log ratio)” value does the source give for U9G U15G C27G U31A C38A A66C G67A C87U C99G G143C here?
Answer: ≤ -4.2

Question: Which “polymerase ribozyme fitness (log ratio)” value does the source give for C10U C35A A40U U44A C51U G59U G68C C87A G143U here?
Answer: ≤ -4.2

Question: With C10A C85U as the variant, how does the “polymerase ribozyme fitness (log ratio)” value read?
Answer: -4.01

Question: Which “polymerase ribozyme fitness (log ratio)” value does the source give for C10U G70U C87A C118U here?
Answer: ≤ -4.2

Question: With C10G C18U G59U G86A C103A as the variant, how does the “polymerase ribozyme fitness (log ratio)” value read?
Answer: ≤ -4.2

Question: Which “polymerase ribozyme fitness (log ratio)” value does the source give for C10A U31C G46A C69G G80A U82A G86A C99U G100U G141A here?
Answer: ≤ -4.2

Question: With C10U A17G A52C C75U C99U U102C U127A U135A as the variant, how does the “polymerase ribozyme fitness (log ratio)” value read?
Answer: ≤ -4.2

Question: For U9G A40C, which “polymerase ribozyme fitness (log ratio)” value is on record?
Answer: -3.48

Question: For C10U C36U C63A C118U, which “polymerase ribozyme fitness (log ratio)” value is on record?
Answer: ≤ -4.2

Question: With U9C A47C A60G G84C C93A C105G A113U U127C as the variant, how does the “polymerase ribozyme fitness (log ratio)” value read?
Answer: ≤ -4.2

Question: For C10G A73U G128U, which “polymerase ribozyme fitness (log ratio)” value is on record?
Answer: ≤ -4.2

Question: For U9G A17C A52C G84A C118A, which “polymerase ribozyme fitness (log ratio)” value is on record?
Answer: ≤ -4.2

Question: With U9C G50C C75G C85G C125A as the variant, how does the “polymerase ribozyme fitness (log ratio)” value read?
Answer: ≤ -4.2

Question: With C10G A12G A120U U135C as the variant, how does the “polymerase ribozyme fitness (log ratio)” value read?
Answer: ≤ -4.2

Question: For C10G A23C U31G C75U C87G C93A G133U G136U, which “polymerase ribozyme fitness (log ratio)” value is on record?
Answer: ≤ -4.2

Question: With C10G A41C A73U U134A as the variant, how does the “polymerase ribozyme fitness (log ratio)” value read?
Answer: ≤ -4.2

Question: For C10U A64C A89C G117C A137C, which “polymerase ribozyme fitness (log ratio)” value is on record?
Answer: ≤ -4.2

Question: Which “polymerase ribozyme fitness (log ratio)” value does the source give for U9C G25C U56A C93U C99G here?
Answer: ≤ -4.2

Question: For C10U C123U G141C, which “polymerase ribozyme fitness (log ratio)” value is on record?
Answer: -4.03

Question: For C10G A20U A52C G86A G92U A115U G152A, which “polymerase ribozyme fitness (log ratio)” value is on record?
Answer: ≤ -4.2

Question: With C10A U56G C57G G59A C79U G83C C99G as the variant, how does the “polymerase ribozyme fitness (log ratio)” value read?
Answer: ≤ -4.2

Question: Which “polymerase ribozyme fitness (log ratio)” value does the source give for C10G C54U G62C G86U U146C here?
Answer: ≤ -4.2

Question: Which “polymerase ribozyme fitness (log ratio)” value does the source give for U9C C76U here?
Answer: -2.74

Question: With U9G U33G G59A G140U as the variant, how does the “polymerase ribozyme fitness (log ratio)” value read?
Answer: ≤ -4.2

Question: For U9G U56A, which “polymerase ribozyme fitness (log ratio)” value is on record?
Answer: -4.07

Question: With C10G C76U as the variant, how does the “polymerase ribozyme fitness (log ratio)” value read?
Answer: -3.93

Question: With U9G A29U U53G U55G C93A A137C as the variant, how does the “polymerase ribozyme fitness (log ratio)” value read?
Answer: ≤ -4.2

Question: Which “polymerase ribozyme fitness (log ratio)” value does the source give for U9C A66G C76G G92U C114A here?
Answer: ≤ -4.2

Question: For C10U G42C G88U C105G G143U, which “polymerase ribozyme fitness (log ratio)” value is on record?
Answer: ≤ -4.2

Question: For U9C A29U U31C U44A C75A C85A G141A, which “polymerase ribozyme fitness (log ratio)” value is on record?
Answer: ≤ -4.2

Question: For U9G U53A, which “polymerase ribozyme fitness (log ratio)” value is on record?
Answer: -3.81

Question: For C10U C32U G68U G74A U78A G92A C125A G140U U145G, which “polymerase ribozyme fitness (log ratio)” value is on record?
Answer: ≤ -4.2

Question: With U9G C54G G62A C75A G81C C93G C96A C103G C118U as the variant, how does the “polymerase ribozyme fitness (log ratio)” value read?
Answer: ≤ -4.2

Question: Which “polymerase ribozyme fitness (log ratio)” value does the source give for C10U C14G C76U A106G A107G C108U here?
Answer: ≤ -4.2

Question: Which “polymerase ribozyme fitness (log ratio)” value does the source give for C10U G42C G83U A97G G124U G133C here?
Answer: ≤ -4.2

Question: Which “polymerase ribozyme fitness (log ratio)” value does the source give for C10U A41U G92C U139G here?
Answer: -4.06

Question: Which “polymerase ribozyme fitness (log ratio)” value does the source give for C10U C32A C51G A106G A142C U148A here?
Answer: ≤ -4.2

Question: For C10G U77A C93U U144G, which “polymerase ribozyme fitness (log ratio)” value is on record?
Answer: ≤ -4.2

Question: Which “polymerase ribozyme fitness (log ratio)” value does the source give for C10U G11U A29C U44G U55A G68A G71U G80A C93A A98U A138C here?
Answer: ≤ -4.2

Question: With C10G A22G A39U U109C as the variant, how does the “polymerase ribozyme fitness (log ratio)” value read?
Answer: ≤ -4.2

Question: With C10U G11U A30U C76A A119U A120C A137U as the variant, how does the “polymerase ribozyme fitness (log ratio)” value read?
Answer: ≤ -4.2

Question: With C10G A16U A49C C51G A52U U56A C103G U146A as the variant, how does the “polymerase ribozyme fitness (log ratio)” value read?
Answer: ≤ -4.2

Question: With C10G U33A C69A C96G as the variant, how does the “polymerase ribozyme fitness (log ratio)” value read?
Answer: ≤ -4.2

Question: For U9C U53A G58U A60C A66C A147C, which “polymerase ribozyme fitness (log ratio)” value is on record?
Answer: ≤ -4.2

Question: With C10G C36U U55A C95U G133U as the variant, how does the “polymerase ribozyme fitness (log ratio)” value read?
Answer: ≤ -4.2

Question: For U9C A22U U53G C79U, which “polymerase ribozyme fitness (log ratio)” value is on record?
Answer: ≤ -4.2
